Here are results for 1 substance from article PMC2668795.

The target in this assay is syntaxin1 (mouse (endogenous in brain synaptosomes)) (UniProt O35526). The assay can be described thus: co-IP; synaptosomes from wt, ASMko (7 months; also 1 month) or wt+Se mice, equal protein; 150 mM NaCl, 0.5% sodium deoxycholate, 1% NP40; syntaxin1 monoclonal antibody 4 h at 4°C, protein G sepharose beads overnight at 4°C; Western blot for syntaxin1, Munc18, SNAP25 and Vamp2. Background: A western blot detects proteins with antibodies after separation by electrophoresis.
UniProt O35526, sequence (O35526 whole entry): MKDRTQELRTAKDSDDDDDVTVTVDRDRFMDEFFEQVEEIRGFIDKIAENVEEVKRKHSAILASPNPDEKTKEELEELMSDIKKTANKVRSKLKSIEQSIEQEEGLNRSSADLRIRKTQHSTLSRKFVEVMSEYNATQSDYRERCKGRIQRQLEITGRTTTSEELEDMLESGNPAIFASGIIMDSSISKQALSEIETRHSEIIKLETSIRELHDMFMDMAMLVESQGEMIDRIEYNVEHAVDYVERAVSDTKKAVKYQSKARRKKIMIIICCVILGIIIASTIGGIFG

Turning to “Munc18 (from UniProt O08599 1-594) (natural protein)”, the fold change of Munc18 co-precipitated with syntaxin1, ASMko versus wt synaptosomes is 1.9 fold.
